This is an account of results in patent publication US20240287172A1 (SCIRHOM, published 2024).

Where a chain is given by its changes, count along the chain named.

First the molecules themselves.
T1: miR2-FL-WT-FLAG (mouse, UniProt Q80WQ6 1-827)
T1 construct: on MEF-DKO cells
T1 sequence: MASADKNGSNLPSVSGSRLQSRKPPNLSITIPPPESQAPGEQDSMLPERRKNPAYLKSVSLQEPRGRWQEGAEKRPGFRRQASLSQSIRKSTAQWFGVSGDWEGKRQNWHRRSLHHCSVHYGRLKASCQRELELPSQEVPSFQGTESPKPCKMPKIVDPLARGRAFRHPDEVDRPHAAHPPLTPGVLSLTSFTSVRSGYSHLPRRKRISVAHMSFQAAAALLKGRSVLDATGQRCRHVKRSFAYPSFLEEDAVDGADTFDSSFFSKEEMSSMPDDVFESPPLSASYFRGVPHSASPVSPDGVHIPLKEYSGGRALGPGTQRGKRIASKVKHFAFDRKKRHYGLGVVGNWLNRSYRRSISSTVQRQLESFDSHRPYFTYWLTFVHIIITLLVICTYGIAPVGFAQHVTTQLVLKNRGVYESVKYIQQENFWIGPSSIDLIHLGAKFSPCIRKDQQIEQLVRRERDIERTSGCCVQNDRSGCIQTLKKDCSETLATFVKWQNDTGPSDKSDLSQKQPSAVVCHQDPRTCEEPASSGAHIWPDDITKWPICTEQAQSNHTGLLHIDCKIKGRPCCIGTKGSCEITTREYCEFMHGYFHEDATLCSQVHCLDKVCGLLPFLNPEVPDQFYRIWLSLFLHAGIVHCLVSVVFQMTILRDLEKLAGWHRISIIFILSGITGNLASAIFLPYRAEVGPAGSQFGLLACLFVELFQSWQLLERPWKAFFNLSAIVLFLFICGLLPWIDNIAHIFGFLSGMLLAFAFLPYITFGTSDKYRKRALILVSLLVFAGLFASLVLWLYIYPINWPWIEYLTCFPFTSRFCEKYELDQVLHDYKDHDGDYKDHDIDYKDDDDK

T2: hiR2-FL-W526A-T7 (human, UniProt Q6PJF5 1-856)
T2 sequence: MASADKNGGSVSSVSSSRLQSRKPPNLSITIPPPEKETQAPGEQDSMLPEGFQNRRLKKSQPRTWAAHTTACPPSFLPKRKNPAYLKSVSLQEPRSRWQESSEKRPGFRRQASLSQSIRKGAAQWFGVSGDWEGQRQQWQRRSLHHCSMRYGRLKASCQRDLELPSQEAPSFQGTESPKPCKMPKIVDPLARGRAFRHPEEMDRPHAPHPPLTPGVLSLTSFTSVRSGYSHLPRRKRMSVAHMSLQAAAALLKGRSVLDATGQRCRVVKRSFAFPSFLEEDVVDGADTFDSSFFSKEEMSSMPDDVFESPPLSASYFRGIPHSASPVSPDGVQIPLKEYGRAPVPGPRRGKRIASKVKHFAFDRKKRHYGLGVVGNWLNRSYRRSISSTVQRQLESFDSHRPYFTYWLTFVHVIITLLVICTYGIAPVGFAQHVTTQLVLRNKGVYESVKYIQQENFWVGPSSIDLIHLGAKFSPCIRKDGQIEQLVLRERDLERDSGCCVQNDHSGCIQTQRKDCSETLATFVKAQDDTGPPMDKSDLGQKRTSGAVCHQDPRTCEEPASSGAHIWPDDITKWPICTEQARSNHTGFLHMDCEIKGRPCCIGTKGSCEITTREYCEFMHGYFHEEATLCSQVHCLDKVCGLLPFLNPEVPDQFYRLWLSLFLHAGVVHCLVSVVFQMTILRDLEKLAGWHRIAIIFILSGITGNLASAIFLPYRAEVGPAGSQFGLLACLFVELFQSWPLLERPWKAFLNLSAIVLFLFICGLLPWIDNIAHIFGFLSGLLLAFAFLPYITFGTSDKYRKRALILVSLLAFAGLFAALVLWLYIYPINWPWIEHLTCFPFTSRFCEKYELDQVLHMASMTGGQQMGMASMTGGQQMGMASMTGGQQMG

B1: antibody 34 (antibody, V domains shown)
VH: QVTLKESGPGILQPSQTLSLTCSFSGFSLSTFSLGVGWIRQSSGKGLEWLAHIWWDDEKYYNPALKSRLTISKDTSKNQVFLKIANVDAADTATYYCARAYYSKSYYALDYWGQGTSVTVSS
VL: DIQMTQSPSSLSASLGERVSLTCRASQEISGYLSWLQQKPDGTIKRLIYAASTLDSGVPKRFSGSRSGSDYSLAISSLESEDFADYYCLQYANFPFTFGSGTKLEIK
notes: mouse IgG, kappa light chain; also called clone #34; purified antibody 34
B2: antibody 5 (antibody, V domains shown)
VH: QVTLKESGPGILQPSQTLSLTCSFSGFSLSTFGMGVGWIRQPSGKGLEWLAHIWWDDEKYYNSALKSRLTISKATSKNQAFLKIANVDTADTATYYCARISNYGSNYWYFNVWGTGTTVTVSS
VL: QVVLTQSPALMSASPGEKVTMTCSAGSSVSCMYWYQQKPGSSPRVLIYDTSNLASGVPARFTGSGSGTSYSLTISRMEAEDAASYYCQQWNSYPLTFGAGTKLELK
notes: mouse IgG, kappa light chain; also called clone #5; purified antibody 5
B3: antibody 42 (antibody, V domains shown)
VH: B2 VH with F24L, M34R, S63P, A74D, A80V, K83R, S101Q, N111D
VL: LIVLTQSPAIMSASPGEKVTMTCGATSRISYMFWYQQKPGSSPRVLIYDTSNLASGVPVRFSGSGSGTSYSLTISRVEAEDVATYYCQQWNSYPLTFGAGTKLELK
notes: mouse IgG, kappa light chain; also called clone #42; purified antibody 42
B4: antibody 57 (antibody, V domains shown)
VH: B2 VH with E58D, S63P, A74D, A80I, T92S, Y95F, S101E, N111D
VL: B2 VL with V2I, L10I, G26S, C31Y, A59V, T62S, I74V, S84T
notes: mouse IgG, kappa light chain; also called clone #57
B5: antibody 54 (antibody, V domains shown)
VH: QVTLKESGPGILQPSQTLSLTCSFSGFSLSTFGLGVGWIRQPSGKGLECLAHIWWDDDKYSNPALKSRLTISKDTSKNQVFLKIANVDSADTATYFCARILNYGSNYWYFDVWGTGTTVTVSS
VL: B2 VL with V2I, G26S, V29I, C31Y, V45L, A59V, T62S, Y70F, I74V, S84T
notes: mouse IgG, kappa light chain; also called clone #54
B6: antibody 49 (antibody, V domains shown)
VH: QVTLKESGPGILQPSQTLSLTCSFSGFSLSTFGMGVGWIRQPSGKGLEWLAHIWWDDDKYYNPALQSRLTVSKDTAKNQVFLKIANVDTADTAIYYCARVGNYGSNYWYFAVWGTGTTVTVSS
VL: B2 VL with V2I, L10I, G26S, C31Y, V45L, A59V, T62S, S84T
notes: mouse IgG, kappa light chain; also called clone #49
B7: antibody 22 (antibody, V domains shown)
VH: B2 VH with A80V
VL: B2 VL with C31Y, S84T
notes: mouse IgG, kappa light chain; also called clone #22; purified antibody 22
B8: antibody 56 (antibody, V domains shown)
VH: B2 VH with A51T, H52N, E58D, A64V, A74D, A80V, S101A, N102A, N111D
VL: B2 VL with V2I, L10I, G26S, C31Y, A54S, A59V, T62S, S84T, N91S
notes: mouse IgG, kappa light chain; also called clone #56
B9: antibody 46 (antibody, V domains shown)
VH: QVTLKESGPGILQPSQTLSLTCSFSGFSLSTFGMGVGWIRQPSGKGLEWLAHIWWDDDNYYNQALKSRLTISKDNTKNQVFLNIANVDTADTATYYCARIRSYDYDVRYAMDYWGQGTSVTVSS
VL: DIKMTQSPSSMYASLRERVTITCKASQDINSYLSWFQQKPGKSPKTLIYRANRLVDGVPSRFSGSGSGQDYSLTISSLEYEDLGIYYCQQYYEFPLTFGAGTRLELK
notes: mouse IgG, kappa light chain; also called clone #46
B10: antibody 47 (antibody, V domains shown)
VH: QVQLQQSGAELVRPGTSVKVSCKASGYAFTNYLIEWVKQRPGQGLEWIGVINPGSGFTNYNEKFKGKAILNADKSSSTAYMQLISLTSEDSAVYFCARDLKRAMDHWGQGTSVTVSS
VL: DIQMTQSPASQSASLGESVTITCLASQTIGTWLAWYQQKPGKSPQLLIHAATSLADGVPSRFSGSGSGTKFSFKISSLQAEDFVSYYCQQIYSSPYTFGGGTKLEIK
notes: mouse IgG, kappa light chain; also called clone #47
B11: antibody 51 (antibody, V domains shown)
VH: QVQLQQSGAELVKPGASVKISCKASGYTFSNYWMNWVKQRPGKGLEWIGQIYPGDGDTKYNGKFKNKATLTADKSSSTAYMQFSSLTSEDSAVYFCARGDLVFVYWGLGTLVTVSA
VL: DVQITQSPSYLAVSPGETITINCRASKNIRKYLAWYQEKPGKTNKLLIYSGSTSQSGVPSRFSGSGSGTDFTLTISSLEPEDFAMYYCQQHNEYPYTFGGGTKLEIK
notes: mouse IgG, kappa light chain; also called clone #51
B12: antibody 16 (antibody, V domains shown)
VH: QVTLKESGPGILQPSQTLSLTCSFSGFSLSTFALGVGWIRQPSGRGLEWLAHIWWDDDKYYNPALKSRLTISKDTSKNHVFLKIANVDTADTATYYCARITTYYYGMDYWGQGTSVTVSS
VL: DIVLSQSPATLSVTPGDSVSLFCRASQSIGNHLHWYQQESHASPRLLIKYASQSISGIPSRFSGSGSGTDFTLSINSVETEDFGMYFCQQSYNWPLTFGAGTKLELK
notes: mouse IgG, kappa light chain; also called clone #16; purified antibody 16
B13: antibody 3 (antibody, V domains shown)
VH: QVTLKESGPGILQPSQTLSLTCSFSGFSLTTFAMGIGWVRQPSGKGLEWLAHIWWDGEKYNNPVLKSRLTISKDTSKNQVFLRIANVDTPDTATYYCARISSIYYIIDNWGQGTSVTVSS
VL: B12 VL with S5T, D17H, F22S, G30S, H32N, Q38K, E39K, A42E, A51V
notes: mouse IgG, kappa light chain; also called clone #3; purified antibody 3

One test has as its target T1, miR2-FL-WT-FLAG. The experiment in a line: FACS, MEF-DKO-miR2-FL-WT-FLAG cells. How it is done: In brief, immortalized MEF-DKO-EV control cells, MEF-DKO-hiR2-FL-WT-FLAG cells and MEF-DKO-miR2-FL-WT-FLAG cells were harvested with 10 mM EDTA in PBS, washed and resuspended in FACS buffer (PBS, 3% FBS, 0.05% sodium azide), and seeded in Nunc U-bottom 96-well plates (Thermo Fisher Scientific, USA) at approximately 3×10⁵ cells per well. To pellet cells and remove supernatants, the plates were centrifuged at 1,500 rpm and 4° C. for 3 minutes. For primary staining, cells were resuspended in 100 μl per well of either FACS buffer alone (controls), mouse monoclonal anti-FLAG IgG (Sigma-Aldrich, USA) at 3 μg/ml FACS buffer or the antibodies of the invention also at 3 μg/ml FACS buffer and incubated on ice for 1 hour. Afterwards, plates were centrifuged at 1,500 rpm and 4° C. for 3 minutes and washed twice with 200 μl per well of FACS buffer. For secondary staining, cells were spun down and resuspended in 100 μl per well of PE-conjugated goat anti-mouse IgG F(ab′)2 detection fragment (Dianova, Germany) diluted 1:100 in FACS buffer. Protected from light, the cell suspensions were incubated on ice for 1 hour. Plates were then centrifuged at 1,500 rpm and 4° C. for 3 minutes and washed three times with 200 μl per well of FACS buffer. Finally, cells were resuspended in 150 μl per well of FACS buffer and analyzed using a BD Accuri™ C6 Plus flow cytometer (Becton Dickinson, Germany).
For orientation: A flow cytometer gives signals particle by particle.
For the molecule B1, the binding result was “no binding (tested: 3 µg/ml)”.

As to B2, the binding result is given as “no binding (tested: 3 µg/ml)”.

In the case of B3, the binding result was “no binding (tested: 3 µg/ml)”.

For B4, the binding result was “no binding (tested: 3 µg/ml)”.

On to B5, for which the binding result is reported as “no binding (tested: 3 µg/ml)”.

For B6, the binding result is given as “no binding (tested: 3 µg/ml)”.

B7: the binding result is reported as “no binding (tested: 3 µg/ml)”.

Consider B8, for which the binding result is “no binding (tested: 3 µg/ml)”.

On to B9, for which the binding result is recorded as “no binding (tested: 3 µg/ml)”.

B10: the binding result is reported as “no binding (tested: 3 µg/ml)”.

Regarding B11, the binding result was “no binding (tested: 3 µg/ml)”.

For B12, the binding result is “no binding (tested: 3 µg/ml)”.

The target of a further test is T2, hiR2-FL-W526A-T7. The experiment in a line: FACS on MEF-DKO cells expressing the variant, 3 µg/ml antibody. On the procedure:
To pellet cells and remove supernatants, the plates were centrifuged at 1,500 rpm and 4° C. for 3 minutes. For primary staining, cells were resuspended in 100 μl per well of either FACS buffer alone (controls) or the purified antibodies 3, 5, 16, 22, 34, 42, 43, 44, 48, and 50 of the invention at 3 μg/ml in FACS buffer and incubated on ice for 1 hour. Afterwards, plates were centrifuged at 1,500 rpm and 4° C. for 3 minutes and washed twice with 200 μl per well of FACS buffer. For secondary staining, cells were spun down and resuspended in 100 μl per well of PE-conjugated goat anti-mouse IgG F(ab′)2 detection fragment (Dianova, Germany) diluted 1:100 in FACS buffer. Protected from light, the cell suspensions were incubated on ice for 1 hour. Plates were then centrifuged at 1,500 rpm and 4° C. for 3 minutes and washed three times with 200 μl per well of FACS buffer. Finally, cells were resuspended in 150 μl per well of FACS buffer and analyzed using a BD Accuri™ C6 Plus flow cytometer (Becton Dickinson, Germany).
For the molecule B1, the “loss of binding vs wild type” value was at least 60%.

As for B2, the “loss of binding vs wild type” value was at least 60%.

With B3, the “loss of binding vs wild type” value is at least 30%.

For the molecule B7, the “loss of binding vs wild type” value is at least 30%.

For B13, the “loss of binding vs wild type” value was at least 30%.
